{
  "source": "patent US9637543B2",
  "about": "“HER3 antibodies and uses thereof” (THE UAB RESEARCH FOUNDATION, priority 2011, dated 2017)",
  "key": {"[1]": {"biological_target": "T1, HER3 (extracellular domain) (Homo sapiens, UniProt P21860)", "T1 construct": "recombinant soluble EGFR, HER2, or the extracellular domain of HER3", "T1 sequence (P21860 20-643 limits assumed)": "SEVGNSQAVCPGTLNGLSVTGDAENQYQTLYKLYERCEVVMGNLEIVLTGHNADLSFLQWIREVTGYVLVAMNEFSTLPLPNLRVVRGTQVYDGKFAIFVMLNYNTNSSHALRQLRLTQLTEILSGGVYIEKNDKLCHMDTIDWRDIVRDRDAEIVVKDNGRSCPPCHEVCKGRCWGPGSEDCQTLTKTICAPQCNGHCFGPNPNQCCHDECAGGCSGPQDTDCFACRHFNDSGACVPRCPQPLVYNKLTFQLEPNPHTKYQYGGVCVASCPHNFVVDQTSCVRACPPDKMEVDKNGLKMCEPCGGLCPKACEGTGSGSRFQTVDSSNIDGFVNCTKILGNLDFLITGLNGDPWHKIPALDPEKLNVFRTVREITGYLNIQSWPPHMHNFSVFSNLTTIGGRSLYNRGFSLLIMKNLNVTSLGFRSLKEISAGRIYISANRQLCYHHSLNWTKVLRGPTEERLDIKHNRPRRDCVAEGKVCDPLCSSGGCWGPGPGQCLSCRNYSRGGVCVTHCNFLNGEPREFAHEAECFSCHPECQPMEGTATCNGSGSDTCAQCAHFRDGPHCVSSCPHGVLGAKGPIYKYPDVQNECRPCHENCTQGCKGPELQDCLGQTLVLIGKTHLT", "assay": "ELISA binding specificity on recombinant soluble EGFR, HER2, HER3", "details": "plate coated with 1 μg/ml recombinant soluble EGFR, HER2 or HER3 extracellular domain", "procedure": "(§1) The average OD values of triplicates are presented. The values for egFR are superimposed on the values for HER2. […] EGFR, HER2 or HER3-transfected SP 2/0 cells were stained with 1 μg/ml of purified antibody, followed by PE-goat anti-mouse IgG.\n(§2) An ELISA plate was coated with 1 μg/ml of recombinant soluble EGFR, HER2, or the extracellular domain of HER3."}, "[2]": {"biological_target": "T2, HER3-transfected SP 2/0 cells (Homo sapiens, UniProt P21860)", "T2 construct": "expressed in transfected cells; host or cells: SP 2/0 cells", "T2 sequence (P21860 20-1342)": "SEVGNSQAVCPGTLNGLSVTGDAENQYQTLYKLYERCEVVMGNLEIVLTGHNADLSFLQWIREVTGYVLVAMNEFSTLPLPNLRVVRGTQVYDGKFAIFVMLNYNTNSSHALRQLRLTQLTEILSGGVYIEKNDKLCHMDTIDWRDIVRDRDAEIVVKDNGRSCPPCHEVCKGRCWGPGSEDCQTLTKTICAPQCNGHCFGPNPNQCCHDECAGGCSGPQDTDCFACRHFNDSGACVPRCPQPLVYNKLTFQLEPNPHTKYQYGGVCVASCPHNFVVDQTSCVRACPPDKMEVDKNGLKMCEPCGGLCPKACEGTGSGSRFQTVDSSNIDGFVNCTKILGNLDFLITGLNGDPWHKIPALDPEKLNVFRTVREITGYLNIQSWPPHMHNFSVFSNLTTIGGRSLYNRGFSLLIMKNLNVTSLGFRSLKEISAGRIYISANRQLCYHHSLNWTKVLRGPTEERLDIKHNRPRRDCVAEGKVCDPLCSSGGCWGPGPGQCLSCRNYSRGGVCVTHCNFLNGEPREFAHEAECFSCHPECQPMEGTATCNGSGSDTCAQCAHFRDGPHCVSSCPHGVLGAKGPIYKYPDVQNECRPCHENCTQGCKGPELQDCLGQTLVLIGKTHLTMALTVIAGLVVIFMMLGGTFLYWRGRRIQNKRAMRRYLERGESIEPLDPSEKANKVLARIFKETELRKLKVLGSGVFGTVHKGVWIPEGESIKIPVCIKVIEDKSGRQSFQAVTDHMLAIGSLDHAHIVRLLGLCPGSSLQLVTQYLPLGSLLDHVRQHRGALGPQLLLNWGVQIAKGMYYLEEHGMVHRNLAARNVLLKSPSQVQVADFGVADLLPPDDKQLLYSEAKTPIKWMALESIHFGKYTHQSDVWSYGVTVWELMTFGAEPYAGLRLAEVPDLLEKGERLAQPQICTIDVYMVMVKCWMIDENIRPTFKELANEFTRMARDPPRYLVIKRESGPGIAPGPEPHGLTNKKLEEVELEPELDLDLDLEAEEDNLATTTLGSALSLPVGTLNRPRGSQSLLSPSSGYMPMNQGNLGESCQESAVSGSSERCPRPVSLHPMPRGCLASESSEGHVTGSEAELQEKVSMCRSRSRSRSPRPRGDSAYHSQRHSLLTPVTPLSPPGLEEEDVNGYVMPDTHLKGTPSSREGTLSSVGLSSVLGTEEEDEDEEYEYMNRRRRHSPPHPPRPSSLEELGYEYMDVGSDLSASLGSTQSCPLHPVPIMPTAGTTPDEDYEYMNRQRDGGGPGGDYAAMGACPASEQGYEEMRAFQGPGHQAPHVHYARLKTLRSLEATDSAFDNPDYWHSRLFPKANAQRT", "assay": "Flow cytometry binding specificity on transfected SP 2/0 cells", "details": "EGFR, HER2 or HER3 transfected SP2/0 cells, 1 μg/ml purified antibody", "procedure": "as §1, §2"}, "[3]": {"biological_target": "T3, recombinant soluble HER3 (Homo sapiens, UniProt P21860)", "T3 construct": "coated with 1 μg/ml of recombinant soluble HER3", "T3 sequence (P21860 20-643 limits assumed)": "as the sequence (P21860 20-643 limits assumed) above", "assay": "ELISA for blocking of NRG1 binding to HER3", "details": "100 ng/ml biotin-conjugated NRG1, increasing antibody concentrations", "text": "(§3) The binding of NRG1 to HER3 (vertical axis) was detected by HRP-streptavidin. […] NRG1 binding was detected by PE-streptavidin. The mean fluorescent intensities (MFI) of NRG1 bound are presented.\n(§4) The binding of NRG1 to HER3 was detected by HRP-streptavidin. […] Thus, the 1A5 antibody is herein referred to as a ligand-independent antibody. […] Thus, the 3D4 antibody is herein referred to as a ligand-dependent antibody. […] NRG1 binding was detected by PE-streptavidin."}, "[4]": {"biological_target": "T2, HER3-transfected SP 2/0 cells", "assay": "Flow cytometry for blocking of NRG1 binding to HER3", "details": "100 ng/ml biotin-conjugated NRG1, increasing antibody concentrations", "text": "as §3, §4"}, "[5]": {"biological_target": "T3, recombinant soluble HER3", "assay": "Sandwich ELISA for epitopes (1A5 capture, HRP-3D4 detection)", "format": "binding", "details": "plate coated with 2 μg/ml 1A5, 200 ng/ml HRP-conjugated 3D4", "procedure": "An ELISA plate was coated with 2 μg/ml of purified 1A5 and then incubated with indicated concentrations of recombinant soluble HER3 in the presence of 200 ng/ml HRP-conjugated 3D4. The binding of 3D4 to HER3 was detected by chemiluminescence substrate. The average counts per second of triplicates are presented.\nAn ELISA plate was coated with 2 μg/ml of purified 1A5 and then incubated with increasing concentrations of HER3 in the presence of 200 ng/ml HRP-conjugated 3D4. The binding of 3D4 antibody to HER3 was detected by chemiluminescence."}, "[6]": {"test_system": "A549 human lung cancer xenograft", "assay": "A549 human lung cancer xenograft model", "format": "in vivo"}, "[7]": {"test_system": "N87 human gastric cancer xenograft", "assay": "N87 human gastric cancer xenograft model", "format": "in vivo", "details": "in combination with lapatinib"}, "[8]": {"test_system": "MKN28 human gastric cancer xenograft", "assay": "MKN28 human gastric cancer xenograft model", "format": "in vivo", "details": "in combination with lapatinib"}, "[9]": {"test_system": "HT29 human colon cancer xenograft", "assay": "HT29 human colon cancer xenograft model", "format": "in vivo"}, "[10]": {"test_system": "DR5-apoptosis resistant human breast cancer ZR75-1 cell line", "assay": "Functional screen for apoptosis of DR5-resistant cells", "format": "cell-based", "details": "in the presence of an agonistic DR5-antibody selected from TRA-8 or CTB006", "text": "In a functional screen of a hybridoma library made against the DR5-apoptosis resistant human breast cancer ZR75-1 cell line, the 1A5 antibody was identified. […] The target of the 1A5 antibody was identified to be HER3 by immunoprecipitation with the 1A5 antibody and subsequent mass spectrometry analysis."}, "[11]": {"biological_target": "T4, HER2 (Homo sapiens, UniProt P04626)", "assay": "HER2 autophosphorylation in pancreatic cancer cell lines", "format": "cell-based", "parameters": "endogenous in cells"}, "[12]": {"biological_target": "T5, HER3 (Homo sapiens, UniProt P21860)", "T5 sequence (P21860 20-1342)": "as the sequence (P21860 20-1342) above", "assay": "HER3 tyrosine phosphorylation ELISA, antibodies with or without tyrosine kinase inhibitor", "format": "cell-based", "parameters": "endogenous in cells; host or cells: N87; tyrosine phosphorylation of HER3: dose or concentration left out as unconfirmed", "details": "24 hours; for tyrosine phosphorylation levels of HER3: 20 μg/ml antibody"}, "[13]": {"biological_target": "T5, HER3", "assay": "Ligand-independent activation (autophosphorylation) of HER3 in cancer cells, ELISA", "format": "cell-based", "parameters": "endogenous in cells; host or cells: N87, BT474, ZR75-30, Panc 2.03", "procedure": "The ELISA plate was coated with 3F8 anti-HER3 antibody (recognizing a different epitope than 1A5 and 3D4) to capture total HER3 (Total HER3, right graph for FIGS. 4A-4D). […] The total HER3 was detected by HRP-conjugated 1E8 anti-HER3 antibody. The tyrosine-phosphorylated HER3 and total HER3 levels were then measured by chemiluminescence.\nThe ELISA plate was coated with 3F8 anti-HER3 antibody (recognizing a different epitope than the 1A5 antibody) to capture total HER3."}, "[14]": {"biological_target": "T5, HER3", "assay": "Ligand-dependent (NRG1) activation of HER3 in cancer cells, ELISA", "format": "cell-based", "parameters": "endogenous in cells; host or cells: N87, BT474, ZR75-30, Panc 2.03", "details": "N87, BT474, ZR75-30, Panc 2.03 cells; antibody 24 hours, then 100 pg/ml NRG1 1 hour", "text": "(§5) The ELISA plate was coated with 3F8 anti-HER3 antibody (recognizing a different epitope than 1A5 and 3D4) to capture total HER3.\nas §5\nAn ELISA plate was coated with 3F8 anti-HER3 antibody to capture total HER3."}, "[15]": {"biological_target": "T6, EGFR (Homo sapiens, UniProt P00533)", "assay": "EGFR autophosphorylation in pancreatic cancer cell lines", "format": "cell-based", "parameters": "endogenous in cells; host or cells: panel of eight pancreatic cancer cell lines"}, "[16]": {"biological_target": "T4, HER2", "assay": "HER2 tyrosine phosphorylation ELISA, antibodies with or without lapatinib", "format": "cell-based", "parameters": "endogenous in cells; host or cells: N87 gastric cancer cells; ZR75-30 breast cancer cells", "details": "24 hours, without lapatinib"}, "[17]": {"biological_target": "T6, EGFR", "assay": "EGFR tyrosine phosphorylation ELISA, antibodies with or without tyrosine kinase inhibitor", "details": "24 hours"}, "[18]": {"biological_target": "T5, HER3", "assay": "HER3 autophosphorylation in pancreatic cancer cell lines", "format": "cell-based", "parameters": "endogenous in cells; host or cells: N87, BT474, ZR75-30, Panc 2.03, A549 and a panel of human cancer cell lines", "details": "single agents"}},
  "note": "Entries after “also recorded” stand apart in the source; their conditions may differ.",
  "data": [
    {"molecule": "1A5: ligand-independent HER3 antibody; heavy chain variable region SEQ ID NO:1, light chain variable region SEQ ID NO:2 (antibody, V domains shown) VH: MEWIWIFLFIFSGTAGVHSQVQLQQSGAELARPGASVKLSCKASGYTFTDNYINWMKQRPGQGLEWIGEIYPGSGNTYYNEKFKGKATLTADKSSSTAYMQLSSLTSEESAVYFCARSPNLRLYYFDYWGQGTTLTVSS VL: MVSTSQLLGLLLFWTSASRCDIVMTQSPATLSVTPGDRVSLSCRASQSINDYLYWYQQKLHESPRLLIKFASHSISGIPSRFSGSGSGSDFTLSINSVEPEDVGVYYCQNGHSFPLTFGAGTKLELK", "values": [
      {"measurement": "binding specificity by ELISA", "setting": "[1]", "value": "specifically bind HER3; also recorded: specific binding"},
      {"measurement": "binding specificity by flow cytometry", "setting": "[2]", "value": "specifically bind HER3"},
      {"measurement": "blocking of NRG1 binding to HER3 (ELISA)", "setting": "[3]", "value": "failed in block NRG1 binding to HER3; also recorded: does not block ligand binding to HER3"},
      {"measurement": "blocking of NRG1 binding to HER3 (flow cytometry)", "setting": "[4]", "value": "failed to block NRG1 binding to HER3; also recorded: does not block ligand binding to HER3"},
      {"measurement": "epitopes of HER3 bound", "setting": "[5]", "value": "bind different epitopes of HER3; also recorded: recognize different epitopes on HER3"},
      {"measurement": "tumor volume", "setting": "[6]; antibodies without Erbitux", "value": "reduced tumor volume"},
      {"measurement": "tumor volume", "setting": "[6]; in combination with Erbitux", "value": "reduced tumor volume more than administration of Erbitux alone"},
      {"measurement": "tumor volume", "setting": "[7]", "value": "synergistically reduces tumor volume"},
      {"measurement": "tumor volume", "setting": "[8]", "value": "synergistically reduces tumor volume"},
      {"measurement": "tumor volume", "setting": "[9]; antibodies or lapatinib alone", "value": "had the greatest tumor volume reducing effect; also recorded: reduces tumor volume"},
      {"measurement": "tumor volume", "setting": "[9]; in combination with lapatinib", "value": "synergistically reduces tumor volume"},
      {"measurement": "apoptosis of DR5-resistant ZR75-1 cells", "setting": "[10]", "value": "apoptosis of the DR5-resistant ZR75-1 cells was observed"},
      {"measurement": "autophosphorylation of HER2, 1A5 with lapatinib", "setting": "[11]; in combination with lapatinib", "value": "significantly reduced levels of HER2 autophosphorylation; also recorded: reduced the levels of HER2 autophosphorylation to a greater extent than the 1A5 antibody or lapatinib alone"},
      {"measurement": "autophosphorylation of HER2", "setting": "[11]; single agents", "value": "partially inhibited autophosphorylation of HER2"},
      {"measurement": "tyrosine phosphorylation levels of HER3, effect of adding Erlotinib", "setting": "[12]; A549 cells, 20 μg/ml antibody with 100 nM Erlotinib", "value": "enhanced"},
      {"measurement": "tyrosine phosphorylation levels of HER3", "setting": "[12]; A549 cells, without Erlotinib", "value": "reduced the tyrosine-phosphorylation levels of HER3"},
      {"measurement": "tyrosine phosphorylation of HER3", "setting": "[12]; N87 cells, without lapatinib", "value": "reduced the tyrosine phosphorylation of HER3"},
      {"measurement": "tyrosine phosphorylation of HER3, effect of adding lapatinib", "setting": "[12]; N87 cells, with 100 nM lapatinib", "value": "enhanced"},
      {"measurement": "tyrosine phosphorylation levels of HER3, effect of adding lapatinib", "setting": "[12]; ZR75-30 cells, 20 μg/ml antibody with 100 nM lapatinib", "value": "enhanced"},
      {"measurement": "tyrosine phosphorylation levels of HER3", "setting": "[12]; ZR75-30 cells, without lapatinib", "value": "reduced the tyrosine phosphorylation levels of HER3"},
      {"measurement": "inhibition of ligand-independent activation of HER3 in a panel of human cancer cell lines", "setting": "[13]; 20 μg/ml 1A5, 24 hours", "value": "inhibition of ligand-independent activation of HER3 in a panel of human cancer cells lines"},
      {"measurement": "inhibition of autophosphorylation of HER3", "setting": "[13]; N87, BT474, ZR75-30, Panc 2.03 cells, increasing concentrations, 24 hours", "value": "capable of inhibiting autophosphorylation of HER3 to a greater extent than the ligand-dependent 3D4 antibody; also recorded: dose-dependent inhibition of ligand-independent activation (autophosphorylation) of HER3"},
      {"measurement": "inhibition of ligand-dependent activation of HER3", "setting": "[14]", "value": "capable of inhibiting ligand-dependent activation of HER3 to a lesser extent than the ligand-dependent 3D4 antibody"},
      {"measurement": "autophosphorylation of EGFR, 1A5 with erlotinib", "setting": "[15]; in combination with erlotinib", "value": "capable of enhancing the inhibitory activity of erlotinib; also recorded: able to enhance the inhibitory activity of erlotinib"},
      {"measurement": "autophosphorylation of EGFR, 1A5 with lapatinib", "setting": "[15]; in combination with lapatinib", "value": "not able to enhance the activity of lapatinib"},
      {"measurement": "autophosphorylation of EGFR", "setting": "[15]; single agents", "value": "partially inhibited EGFR autophosphorylation in a HER3-dependent fashion"},
      {"measurement": "tyrosine phosphorylation level of HER2", "setting": "[16]; N87 cells", "value": "did not affect the level of tyrosine phosphorylation for EGFR or HER2"},
      {"measurement": "tyrosine phosphorylation levels of HER2", "setting": "[16]; ZR75-30 cells, 20 μg/ml antibody", "value": "did not affect tyrosine phosphorylation levels of HER2"},
      {"measurement": "tyrosine phosphorylation levels of EGFR", "setting": "[17]; A549 cells, 20 μg/ml antibody, without Erlotinib", "value": "did not affect tyrosine phosphorylation levels of EGFR"},
      {"measurement": "tyrosine phosphorylation level of EGFR", "setting": "[17]; N87 cells, 20 mg/ml antibody, without lapatinib", "value": "did not affect the level of tyrosine phosphorylation for EGFR or HER2"},
      {"measurement": "autophosphorylation of HER3", "setting": "[18]", "value": "inhibited autophosphorylation of HER3 in all HER3 positive cell lines except for Panc1; also recorded: inhibited autophosphorylation of HER3 in all HER3 positive cell lines, except Panc 1"}
    ]}
  ]
}
